Measured values published in PMC12098678.

Key:
[1] = target: human recombinant biotinylated FcRn (neonatal Fc receptor) (human) (UniProt P55899); test: SPR; ProteOn XPR36; biotinylated human FcRn immobilised on an NLC chip, IL-12Fc variants or control antibodies as analytes (0-6075 nM); histidine buffer (20 mM histidine, 150 mM NaCl, 0.05% Tween 20) pH 6.0; KD from binding equilibrium analysis; values of Figure 2B (for WT and NHQ those of the channel labelled 100-115 RU in the sheet of Figure S2C)
[2] = target: human recombinant biotinylated FcRn (neonatal Fc receptor) (human) (UniProt P55899); test: SPR; as a1, channel L2, FcRn coating density labelled 250-260 RU; WT 365-4.5 nM, NHQ 3645-45 nM; pH 6.0; equilibrium analysis
[3] = target: human recombinant biotinylated FcRn (neonatal Fc receptor) (human) (UniProt P55899); test: SPR; as a1, channel L5, FcRn coating density labelled 30-35 RU; WT 365-4.5 nM, NHQ 3645-45 nM; pH 6.0; equilibrium analysis
[4] = target: human recombinant biotinylated FcRn (neonatal Fc receptor) (human) (UniProt P55899); test: SPR; as a1, channel L4, FcRn coating density labelled 75-80 RU; WT 365-4.5 nM, NHQ 3645-45 nM; pH 6.0; equilibrium analysis
[5] = target: human recombinant biotinylated FcRn (neonatal Fc receptor) (human) (UniProt P55899); test: SPR; as a1, channel L1, FcRn coating density labelled 550-600 RU; WT 365-4.5 nM, NHQ 3645-45 nM; pH 6.0; equilibrium analysis
[6] = target: human recombinant biotinylated FcRn (neonatal Fc receptor) (human) (UniProt P55899)

Control IgG1 (antibody)
Kd [1]: 218 nM

Control IgG4 (antibody)
Kd [1]: 343 nM

IL-12Fc WT (IHH) (Fc fusion)
Kd [1]: 101 nM | Kd [2]: 60.1 nM | Kd [3]: 445 nM | Kd [4]: 186 nM | Kd [5]: 216 nM

IL-12Fc WT S228P (Fc fusion)
Kd [1]: 182 nM

human IL-12Fc NHQ (I253N H435Q), FcRn-silenced IL-12Fc (Fc fusion)
IL-12 level in the ipsilateral brain hemisphere 6 h after CED of 1 ug into the striatum of hFcRn Tg32 mice, compared to the IAQ and AAA variants and WT IL-12Fc [6]: > 30%

human IL-12Fc WT (IHH), single-chain IL-12 fused to human IgG4 Fc (Fc fusion)
residual brain level of IL-12Fc WT 6 h after CED in hFcRn Tg32 mice given the FcRn inhibitor MST-HN Fc (100 ug i.v.) beforehand [6]: > 50%
